Results on 3 substances are retold here after paper PMC4650713, “Crystal structure of Bax bound to the BH3 peptide of Bim identifies important contacts for interaction” (Cell Death & Disease, 2015).

Usually IC50 stands for the concentration at which inhibition is half-maximal. Low readings indicate inhibition by little substance, high ones a need for much substance.

Experiment [1] addresses BaxΔC21 (UniProt Q07812).
Experiment [2] has as its target BaxΔC21 (UniProt Q07812). As to the kind of experiment: SPR; competition in solution: BaxΔC21 at 25 nM incubated with increasing concentrations of BH3 peptide in 10 mM HEPES, 150 mM NaCl, 3.4 mM EDTA, 0.005% Tween-20, pH 7.4 with 0.5% octylglucoside, injected onto a CM5 chip with immobilised BimBH3; Bim4E channel subtracted; IC50. A general note: Surface plasmon resonance follows binding to a sensor surface in real time, without labels.

Sequence of BaxΔC21 (Q07812 1-171 C62S/C126S): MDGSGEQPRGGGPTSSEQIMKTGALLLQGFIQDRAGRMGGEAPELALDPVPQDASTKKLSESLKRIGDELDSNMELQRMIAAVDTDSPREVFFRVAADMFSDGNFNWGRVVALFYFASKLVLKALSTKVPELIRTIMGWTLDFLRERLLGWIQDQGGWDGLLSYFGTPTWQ

In the experiment with BaxΔC21 [1], BimBH3 E145K (peptide) gave a core/latch dimer formation of BaxΔC21 triggered by the peptide with CHAPS (gel filtration) greater than 50%. In the experiment with BaxΔC21 [2], this substance returned an IC50 of 2.4 µM and a fold weaker binding than BimBH3 of 40 fold.
BimBH3 P144A/E145A (peptide) came in with a fold loss of affinity against BimBH3 in the experiment with BaxΔC21 [2] of 3 fold.
In the experiment with BaxΔC21 [2], BimBH3 peptide came in with a fold tighter binding than BidBH3 of 5 fold.
